# Reference: patent US11911450B2, “Method for managing pain” (UNIVERSITY OF MIAMI, priority 2017, dated 2024)
# “Also recorded” adds a separate entry of the source.
# B1: Car10: carbonic anhydrase 10, rodent ortholog, overexpressed (V5-tagged) protein (protein)
# chain: MEIVWEVLFLLQANFIVCISAQQNSPKIHEGWWAYKEVVQGSFVPVPSFWGLVNSAWNLCSVGKRQSPVNIETSHMIFDPFLTPLRINTGGRKVSGTMYNTGRHVSLRLDKEHLVNISGGPMTYSHRLEEIRLHFGSEDSQGSEHLLNGQAFSGEVQLIHYNHELYTNVTEAAKSPNGLVVVSIFIKVSDSSNPFLNRMLNRDTITRITYKNDAYLLQGLNIEELYPETSSFITYDGSMTIPPCYETASWIIMNKPVYITRMQMHSLRLLSQNQPSQIFLSMSDNFRPVQPLNNRCIRTNINFSLQGKDCPNNRAQKLQYRVNEWLLK
# modifications: left off: small tags and cut ends
# notes: carbonic anhydrase 10, rodent ortholog, overexpressed (V5-tagged) protein
# B2: CA10: human carbonic anhydrase 10, overexpressed (V5-tagged) protein; SEQ ID NO: 9 (protein)
# chain: B1 chain
# modifications: V5 tag
# Legend:
# Assay type in all cases: cell-based, human
# [1] = system: ITPR1-mediated cytoplasmic calcium release; test: ATP-induced cytoplasmic calcium release in HEK293 cells (Fura-2 imaging); details: 1 μM ATP, overexpression vs empty vector
# Description: (§1) Cell culture and transfections: Human neuronal-derived (e.g., NBL), human non-neuronal derived (e.g., HEK293) cells, or dispersed rodent primary DRG cells can be used. HEK293 cells (cat #CRL-1573 ATCC Manassas, VA) were cultured in Dulbecco's modified Eagle's medium (DMEM-Glutamax cat #0566; Invitrogen) supplemented with 10% fetal bovine serum, FBS (cat #16140 ThermoFisher scientific, Waltham, MA) and 1% penicillin/streptomycin (cat #15140 ThermoFisher scientific, Waltham, MA). Cells were seeded in six-well plates at density of 1.0×10^5 cells per well. The following day, cells were transfected with plasmids via lipofectamine LTX reagent and plus (cat #15338 ThermoFisher scientific, Waltham, MA). For each transfection 2 μg of AAV2-ITR (control), AAV2-V5-Car10, or AAV2-V5-CA10 vectors was used. In various embodiments of the disclosure described herein, 2 μg of expression vectors (including positive and negative controls) in instances when AAV2 is not the viral vector employed.
# (§2) Pharmacodynamics—Bioassay of Calcium Release: Fifteen mm glass coverslips (cat #72228 Electron Microscopy Sciences, Hatfield, PA) were coated with poly-D-Lysine (Sigma) followed by Laminin and 1×10^5 cells were seeded on each coverslip. Twenty-four hrs later, cells were transfected with AAV2-ITR, AAV2-V5-Car10, or AAV2-V5-CA10 vectors as previously described. In embodiments wherein AAV2 is not employed, other expression vectors (including viral vectors) are used. Fura-2AM (cat #F1221 ThermoFisher scientific, Waltham, MA) was dissolved in DMSO (50 μg in 50 μl) and 1% pluronic acid-127 (cat #P2443 Sigma, St Louis, MO) as the stock solution. Forty eight hrs after seeding, cells were loaded with 2 μM Fura-2AM dye for 45 min at room temperature in the dark in a standard Ca+2 buffer solution containing: 125 mM NaCl, 2 mM MgCl, 4.5 mM KCl, 10 glucose, 20 mM HEPES, 2 mM CaCl2, pH 7.4.25. Following dye loading, coverslips were washed with Ca^+2 buffer solution. […] Regions of interest over the field of view were selected and the mean pixels intensity at each frame was measured. Data was plotted as ratio fluorescence intensity versus time and subsequently converted to a relative scale.
# To further examine whether FLAG-CA8-204 (data not shown), V5-Car10 and V5-CA10 overexpression can inhibit ATP-induced calcium release, HEK293 cells were infected with each if these constructs and real-time intracellular calcium concentrations at baseline and in response to ATP stimulation were measured (FIG. 2). […]
# [2] = system: ITPR1 phosphorylation (pITPR1) at Ser-1755; test: forskolin-induced ITPR1 phosphorylation (pITPR1) in transfected HEK293 cells; details: 1 μM forskolin; for forskolin-induced ITPR1 phosphorylation (pITPR1), western blot: overexpression vs empty vector; for pITPR1 by IHC in response to forskolin: vs empty vector (AAV-null)
# Description: as §1
# Immunohistochemistry (IHC): HEK293 cells were seeded in poly-L-Lysine/laminin coated glass coverslips at a density of per coverslip, 24 hrs later cells were transfected with Car10, CA10 or empty vector respectively. Cells were cultured at 37° C. for an additional 96 hrs, then treated with forskolin 1 μM (F6886 Sigma, St. Louis, MO) for 5 min, then fixed with 4% paraformaldehyde for 15 min, permeabilized with 0.1% Triton X-100 for 10 min, and blocked with 1% bovine serum albumin (BSA, sigma) for 1 h. Cells were then incubated with anti-pITPR1 (cat #8548s cell signaling technology), anti-Car10 (cat #SAB1102286 Sigma, St Louis, MO), anti-V5 (cat #R960 Invitrogen), anti-ITPR1 (cat #8568 Cell Signaling technology) antibody overnight at 4° C. The next day, cells were incubated with the corresponding second antibody (1:200) for 1 h at room temperature in the dark. Coverslips were dried and affixed to slides using a fluorescent mounting medium containing Dapi (cat #P36931 Life Technologies). It will be understood that IHC methods also are contemplated using anti-Car8, anti-CA8, anti-CA8 fragment (CA8-204), anti-CA10, anti-Car11 and anti-CA11 antibodies.
# HEK293 cells were transfected using AAV8-V5 vectors overexpressing Car10 and CA10, an empty vector and vehicle served as controls. A V5 sequence was inserted at the Car10 or CA10 C-terminal region in order to differentiate between exogenous and endogenous CA10/Car10 expression. […] Using the V5 tag, protein overexpression was detected following V5-Car10 and V5-CA10 vector transfection (FIG. 1B).
# In order to examine the role of CA10 in the regulation of ITPR1 phosphorylation (pITPR1) that enhances the response of ITPR1 to the IP3 ligand, HEK293 cells were transfected with AAV8-V5-CA10 vectors. […]
# [3] = system: RYR-dependent calcium release; test: 5HT-induced RYR-dependent cytoplasmic calcium release in NBL cells (Fura2 imaging); details: 50 μM 5HT, vs empty vector
# Description: as §2
# It was also determined that 5HT-induced RYR-dependent calcium release in NBL cells is inhibited by ryanodine. […]
Molecule,ATP-induced cytoplasmic calcium release (Fura-2 340/380 ratio) [1],ATP-induced cytoplasmic calcium release (Fura-2 340/380 ratio) ([1]; listed as V5-Car10),"forskolin-induced ITPR1 phosphorylation (pITPR1), western blot [2]",pITPR1 by IHC in response to forskolin [2],"5HT-induced cytoplasmic calcium release, effect of overexpression ([3]; listed as V5-Car10)",ATP-induced cytoplasmic calcium release (Fura-2 340/380 ratio) ([1]; listed as V5-CA10),"5HT-induced cytoplasmic calcium release, effect of overexpression ([3]; listed as V5-CA10)"
B1,inhibits ITPR1-mediated cytoplasmic calcium release,inhibits ATP-induced cytoplasmic calcium release,reduced forskolin-induced ITPR1 phosphorylation; also recorded: inhibited forskolin-induced pITPR1,no increase in pITPR1,inhibited; also recorded: inhibits 50 μM 5HT-induced cytoplasmic calcium release,,
B2,inhibits ITPR1-mediated cytoplasmic calcium release,,reduced forskolin-induced ITPR1 phosphorylation; also recorded: inhibited forskolin-induced pITPR1,no increase in pITPR1,,inhibits ATP-induced cytoplasmic calcium release,inhibited; also recorded: inhibits 50 μM 5HT-induced cytoplasmic calcium release
